The test system of this experiment is MC38 tumor cells. The experiment is described as follows: MC38 tumor model, IFNα and IL-12 fusion proteins (Example 27C). The class given is in vivo, C57BL/6 mice. The settings on record: ACP31 33-330 μg, ACP11 17.5-525 μg, ACP04 2 and 10 μg. The protocol:
The MC38 cell line, a rapidly growing colon adenocarcinoma cell line that expresses MMP9 in vitro, was used. Using this tumor model, the ability of fusion proteins to affect tumor growth was examined.
Mice were anaesthetized with isoflurane for implant of cells to reduce the ulcerations. 308 CR female C57BL/6 mice were set up with 5×10^5 MC38 tumor cells in 0% Matrigel sc in flank. Cell Injection Volume was 0.1 mL/mouse. Mouse age at start date was 8 to 12 weeks. Pair matches were performed when tumors reach an average size of 100-150 mm^3 and begin treatment. Body weights were taken at initiation and then biweekly to the end. Caliper measurements were taken biweekly to the end. Any adverse reactions were to be reported immediately. […] Within a group with >20% weight loss, individuals hitting the individual body weight loss endpoint were euthanized. If the group treatment related body weight loss is recovered to within 10% of the original weights, dosing resumed at a lower dose or less frequent dosing schedule. Exceptions to non-treatment body weight % recovery were allowed on a case-by-case basis. […] Animals were monitored individually. […]
No compounds in salt form were used. […] The amount needed per week was calculated, aliquoted accordingly, and stored at −20 C. […]
For ACP11, ACP31, ACP131, the amount needed per week was calculated, aliquoted accordingly, and stored at −20 C. […]

B1: ACP04: human p40-murine p35-6xHis (protein)
chain: IWELKKDVYVVELDWYPDAPGEMVVLTCDTPEEDGITWTLDQSSEVLGSGKTLTIQVKEFGDAGQYTCHKGGEVLSHSLLLLHKKEDGIWSTDILKDQKEPKNKTFLRCEAKNYSGRFTCWWLTTISTDLTFSVKSSRGSSDPQGVTCGAATLSAERVRGDNKEYEYSVECQEDSACPAAEESLPIEVMVDAVHKLKYENYTSSFFIRDIIKPDPPKNLQLKPLKNSRQVEVSWEYPDTWSTPHSYFSLTFCVQVQGKSKREKKDRVFTDKTSATVICRKNASISVRAQDRYYSSSWSEWASVPCSGGGGSGGGGSGGGGSRVIPVSGPARCLSQSRNLLKTTDDMVKTAREKLKHYSCTAEDIDHEDITRDQTSTLKTCLPLELHKNESCLATRETSSTTRGSCLPPQKTSLMMTLCLGSIYEDLKMYQTEFQAINAALQNHNHQQIILDKGMLVAIDELMQSLNHNGETLRQKPPVGEADPYRVKMKLCILLHAFSTRVVTINRVMGYLSSAHHHHHH
As to B1, the “Tumor volume over time” value is “tumor volume decreasing over time in a dose-dependent manner”.

The values above are taken from patent publication US11739132B2, “Separation moieties and methods of use thereof” (Werewolf Therapeutics, Inc., priority 2019, dated 2023).
